Data from paper PMC5764952 (2018).

Target: Untagged murine saposin A (SapA) (mouse)
Experiment: crystal structure; complex formed at pH 5.0 with the detergent LDAO, SapA:GALC molar ratio 2:1; crystals at 20 °C from 75 mM sodium citrate pH 5.6, 11% PEG 3350; 3.6 Å

stoichiometry N: 2
Substance: Untagged murine saposin A (SapA) (natural protein)
